Test results published in publication PMC12858339 (The Journal of Biological Chemistry, 2025).

B1: myristoylated M-PMV MA protein extended by 18 amino acids of the downstream phosphoprotein region of Gag (myrMAPP) (domain or fragment)
chain: GQELSQHERYVEQLKQALKTRGVKVKYADLLKFFDFVKDTCPWFPQEGTIDIKRWRRVGDCFQDYYNTFGPEKVPVTAFSYWNLIKELIDKKEVNPQVMAAVAQTEEILKSNSQTDL
modifications: N-terminal myristoyl; uniformly 15N-labelled in some NMR and mixed-isotope XL-MS samples
notes: source: E. coli BL21 (DE3), co-transformed with a plasmid coding yeast N-myristoyl transferase, purified (Ni-NTA agarose)
B2: non-myristoylated M-PMV MA protein extended by 18 amino acids of the downstream phosphoprotein region of Gag (MAPP) (domain or fragment)
chain: B1 chain

Molecular target: T1, calmodulin (CaM), human calmodulin-1 (human, UniProt P0DP23 1-149)
T1 construct: also called CaM-NHS-Red
Test: MST; Red-NHS-labelled CaM kept constant (466 nM in the results, 50 nM in the methods), (myr)MAPP titrated; 50 mM Tris-HCl, 100 mM NaCl, 0.05% Tween 20, pH 7.4, with 20 mM CaCl2; 25 °C; triplicates
Settings: both partners purified

Binder	Kd
B1	4.2 µM
B2	33 µM
